The target of series [1] is T1, Barrier-to-autointegration factor (BAF), human, unlabeled (human, UniProt O75531 1-89).
T1 construct: Barrier-to-autointegration factor (BAF/BANF1), human; Used unlabeled in the NMR experiments; also called BANF1; BAF2 (the dimer); source: cloned and purified as described [12]
T1 sequence (looked up): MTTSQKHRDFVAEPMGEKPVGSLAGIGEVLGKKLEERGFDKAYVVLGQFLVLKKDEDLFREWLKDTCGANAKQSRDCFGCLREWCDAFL
The series can be described thus: NMR titration; 1H-15N HSQC of 50 µM 15N-labeled LEM domain without and with 200 µM unlabeled BAF2; 25 mM potassium phosphate pH 6.5, 200 mM NaCl, 2 mM 2-mercaptoethanol, 27°C. Particulars: both partners purified.

The next series has as its target T2, MAN1-C (UniProt Q9Y2U8 650-911).
T2 sequence: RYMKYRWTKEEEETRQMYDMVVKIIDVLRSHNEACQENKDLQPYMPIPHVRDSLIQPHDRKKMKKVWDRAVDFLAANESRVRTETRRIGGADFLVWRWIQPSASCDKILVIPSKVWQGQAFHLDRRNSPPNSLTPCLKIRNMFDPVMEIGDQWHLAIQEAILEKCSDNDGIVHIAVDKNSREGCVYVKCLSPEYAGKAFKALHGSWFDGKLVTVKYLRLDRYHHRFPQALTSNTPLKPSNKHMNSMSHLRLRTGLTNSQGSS
In words: NMR (1H-15N HSQC); 150 mM NaCl?; NMR: 25 mM potassium phosphate pH 6.5, 2 mM 2-mercaptoethanol, 95% H2O/5% D2O, 200 mM NaCl (Crx samples) or 150 mM NaCl (MAN1-C samples); salt for MA and temperature not given. The pull-down used undefined sonicated salmon sperm DNA (not listed). Particulars: protein: recombinant; tags: His6-thioredoxin removed by thrombin; blunt.

Where no end group is shown, it is not given here.

B1: LEM domain of MAN1 (residues 1-52), 15N-labeled (domain or fragment, UniProt Q9Y2U8 1-52, looked up)
chain: MAAAAASAPQQLSDEELFSQLRRYGLSPGPVTESTRPVYLKKLKKLREEEQQ
modifications: also: 15N-labeled
notes: MAN1 (inner nuclear membrane protein), LEM domain, residues 1-52; Uniformly 15N-labeled for NMR; also called MAN1 LEM domain; MAN-1 LEM domain; source: cloned and purified as described [12]
B1: the binding result in series [1] is on record as “binds”.

B2: 16 mer DNA duplex (dsDNA)
DNA 1: CCAGCACAAACACCTG
DNA 2: CAGGTGTTTGTGCTGG
Take B2: in the series with MAN1-C, the binding result was “binds”.

B3: LEM domain of Emerin (residues 1-47), 15N-labeled (domain or fragment, UniProt P50402 1-47, looked up)
chain: MDNYADLSDTELTTLLRRYNIPHGPVVGSTRRLYEKKIFEYETQRRR
modifications: also: 15N-labeled
notes: Emerin, LEM domain, residues 1-47; Uniformly 15N-labeled for NMR; also called Emerin LEM domain; source: cloned and purified as described [12]
Turning to B3, the binding result in series [1] is reported as “binds”.

The values above are taken from publication PMC3178605, “No Interaction of Barrier-to-Autointegration Factor (BAF) with HIV-1 MA, Cone-Rod Homeobox (Crx) or MAN1-C in Absence of DNA” (PLoS ONE, 2011).
